From publication PMC3671775

Target: extracellular fragment of human macrophage galactose receptor (MGL) isoform 3 (human)
Experiment: cross-linking

Substance: extracellular fragment of human macrophage galactose receptor (MGL) isoform 3 (domain or fragment)
- stoichiometry N: 3
